Results on 167 variants are retold here after the RNAGym collection of RNA variant scans (doi:10.7554/elife.90254).

Sequences and labels used below:
B1: LINE1-full (parent)
chain: UACGUAGGUGGUUUUCCCCUGAUAGUGCUAAGGGGGCCUGGAAGUUUGGACUGGGCAGAGCUCAACACAGCGUGGCAAAGUGGCUGUGGCUAGACUGCCUCUCUGGAUUCCUCGUCACUCAGCAGGGCAUCUCUGAGAGAAAUGCC

The variants in the data set derive from B1. Briefly: self-cleavage, relative activity (ratio to wild type); higher = more cleavage; in vitro, sequencing; the parent is a self-cleaving ribozyme.
Take A92G C128U: the self-cleavage stood at 0.03.

For the variant A92C U130A, the self-cleavage was determined as 0.28.

On to A94G A141U, for which the self-cleavage stood at 0.19.

G93U A140G: the self-cleavage came out at 0.05.

Take A92U C110U: the self-cleavage stood at 0.46.

For U91G A121G, the self-cleavage amounted to 0.33.

Take U96A C145A: the self-cleavage came to 0.06.

U91C U96A: the self-cleavage was 0.08.

Turning to C95A U130C, the self-cleavage amounted to 0.

On to G97A U130C, for which the self-cleavage amounted to 0.19.

For the variant A92G U130C, the self-cleavage was determined as 0.11.

For U96A A142G, the self-cleavage worked out at 0.08.

Consider A92G G126U, for which the self-cleavage worked out at 0.13.

With G93A A117G, the self-cleavage came to 0.06.

For U91C G144A, the self-cleavage came to 0.47.

As to U96C G139U, the self-cleavage was 0.14.

For the variant A94G G97A, the self-cleavage was 0.02.

For U96G G126A, the self-cleavage is 0.

In the case of G97A A141G, the self-cleavage was found to be 0.12.

In the case of A92G G127A, the self-cleavage was determined as 0.12.

For U91C U143C, the self-cleavage is 0.78.

For U91C U143A, the self-cleavage worked out at 0.72.

On to U91C U143G, for which the self-cleavage amounted to 0.62.

Regarding A94U A142G, the self-cleavage came out at 0.34.

As for A94U A142C, the self-cleavage amounted to 0.09.

Regarding U96A A138G, the self-cleavage came out at 0.07.

C95A U143C: the self-cleavage was determined as 0.08.

Turning to G93A A140G, the self-cleavage was 0.06.

As for U96G U102C, the self-cleavage came to 0.

For U96A C110G, the self-cleavage is 0.09.

Turning to U96A U104G, the self-cleavage was 0.08.

As to U91A U108C, the self-cleavage worked out at 0.73.

With U96C A129C, the self-cleavage was 0.15.

In the case of U91C A129U, the self-cleavage is 0.82.

U91G U143C: the self-cleavage came to 0.07.

On to U96A A117G, for which the self-cleavage stood at 0.11.

Regarding G93A C95G, the self-cleavage came out at 0.04.

With A92C C113U, the self-cleavage amounted to 0.14.

For U96A A124U, the self-cleavage came out at 0.06.

Regarding A94G A117U, the self-cleavage was found to be 0.4.

As for U96C A124G, the self-cleavage amounted to 0.06.

Turning to G93U U109C, the self-cleavage came out at 0.02.

For G97A A140U, the self-cleavage is 0.02.

On to G93A U132C, for which the self-cleavage was found to be 0.03.

Consider A94G C113U, for which the self-cleavage came out at 0.09.

Turning to U96A A129G, the self-cleavage worked out at 0.07.

For U96A A129U, the self-cleavage was determined as 0.07.

Turning to U96A G144A, the self-cleavage worked out at 0.07.

As to U91C U108C, the self-cleavage stood at 0.62.

In the case of U91C A117C, the self-cleavage was 1.24.

On to C95A G114A, for which the self-cleavage came out at 0.07.

As for A94C G126C, the self-cleavage is 0.23.

U96A U102C: the self-cleavage was found to be 0.12.

For U96A U102A, the self-cleavage amounted to 0.1.

Turning to U96C G97A, the self-cleavage turned out to be 0.02.

With A92G C113U, the self-cleavage came to 0.1.

For A92G U104A, the self-cleavage worked out at 0.06.

On to U91C G97A, for which the self-cleavage came to 0.05.

Turning to U91A U130C, the self-cleavage came to 0.79.

With G97A G114A, the self-cleavage turned out to be 0.15.

Take U96C G127C: the self-cleavage came to 0.39.

As to U96C G127U, the self-cleavage came to 0.19.

Take U96C G127A: the self-cleavage is 0.08.

Turning to A92U A107U, the self-cleavage was determined as 0.89.

For A92U A107C, the self-cleavage amounted to 0.9.

G93A U109A: the self-cleavage was 0.03.

As for G93A U109G, the self-cleavage is 0.06.

In the case of U96C G144A, the self-cleavage was 0.25.

On to G93A A141G, for which the self-cleavage is 0.04.

Take U91C C118U: the self-cleavage worked out at 0.67.

As to U96C C128U, the self-cleavage was determined as 0.12.

Regarding U91C C120A, the self-cleavage was found to be 0.74.

As for U91C U132C, the self-cleavage amounted to 0.83.

As to A92U U132A, the self-cleavage worked out at 0.69.

For the variant A92U U132C, the self-cleavage was found to be 0.83.

As for U91A A138G, the self-cleavage turned out to be 0.84.

For U91A A124U, the self-cleavage worked out at 0.48.

U96C A121G: the self-cleavage was 0.12.

Take U96C A121C: the self-cleavage turned out to be 0.09.

In the case of C95U A117U, the self-cleavage is 0.21.

For the variant U96C U108G, the self-cleavage was 0.

Take U96C U108C: the self-cleavage amounted to 0.17.

A92C A142G: the self-cleavage amounted to 0.33.

As for A94C A107G, the self-cleavage turned out to be 0.13.

Turning to A94G A107G, the self-cleavage is 0.51.

For A92G A140G, the self-cleavage was found to be 0.15.

Regarding U96C G106U, the self-cleavage was determined as 0.06.

U96C U143A: the self-cleavage stood at 0.13.

As for U96A G114A, the self-cleavage is 0.06.

As for A92U A117G, the self-cleavage stood at 1.46.

For U91A U143A, the self-cleavage was 0.52.

Regarding A94G U132G, the self-cleavage was found to be 0.28.

In the case of A94G A124U, the self-cleavage came to 0.36.

Consider A94G U119A, for which the self-cleavage worked out at 0.39.

A94G U119C: the self-cleavage worked out at 0.38.

As to U96G U115C, the self-cleavage was found to be 0.

With U96A C123U, the self-cleavage stood at 0.06.

As to A92G U134C, the self-cleavage was found to be 0.

Take G97A A138G: the self-cleavage was 0.14.

Take U96A G122A: the self-cleavage was found to be 0.06.

Regarding G93U A107G, the self-cleavage is 0.06.

U96G U134C: the self-cleavage was 0.23.

As to A92U U130A, the self-cleavage stood at 0.67.

As for A94G A142G, the self-cleavage worked out at 0.41.

Regarding U91C G137A, the self-cleavage is 1.14.

Consider G93A A142G, for which the self-cleavage is 0.04.

As for U91A A92U, the self-cleavage is 1.33.

As to A92G U96C, the self-cleavage amounted to 0.25.

On to A94C U96C, for which the self-cleavage was determined as 0.18.

For the variant A94U A129G, the self-cleavage amounted to 0.3.

As for C95G, the self-cleavage turned out to be 0.06.

For the variant C95U, the self-cleavage was determined as 0.14.

C95A: the self-cleavage came to 0.07.

As to A94G U96A, the self-cleavage came to 0.11.

On to A94G U96C, for which the self-cleavage amounted to 0.11.

For A94U U112G, the self-cleavage was 0.42.

For the variant U91C A94G, the self-cleavage was 0.15.

Turning to U91C A94U, the self-cleavage was 0.2.

With A92C U102C, the self-cleavage was 0.14.

Take G97A A136U: the self-cleavage was 0.11.

Take U96A G105A: the self-cleavage is 0.04.

Regarding U91C A136G, the self-cleavage was determined as 0.8.

Turning to A94U G105A, the self-cleavage was 0.21.

Turning to U91C C113A, the self-cleavage is 0.82.

For the variant U96C C99U, the self-cleavage stood at 0.1.

U96A G125U: the self-cleavage is 0.09.

U96A C111U: the self-cleavage was found to be 0.07.

Turning to A92G G97C, the self-cleavage turned out to be 0.06.

On to A92C A121U, for which the self-cleavage came out at 0.05.

As for U96A C103A, the self-cleavage was found to be 0.06.

For A94U U108C, the self-cleavage came to 0.46.

As to C95U U104C, the self-cleavage is 0.54.

For A92G A129U, the self-cleavage was found to be 0.17.

Turning to A92G A94U, the self-cleavage came out at 0.05.

In the case of A94G U102C, the self-cleavage is 0.18.

For the variant U91G C146U, the self-cleavage was found to be 0.1.

U96G U109C: the self-cleavage worked out at 0.17.

U91C A140C: the self-cleavage is 0.38.

In the case of A94U C133U, the self-cleavage turned out to be 0.29.

On to U91C U119G, for which the self-cleavage came to 1.53.

For the variant U91C U119A, the self-cleavage is 0.48.

Consider A92U A94G, for which the self-cleavage was found to be 0.05.

Regarding A94G A121G, the self-cleavage amounted to 0.22.

In the case of A94G A121C, the self-cleavage came out at 0.57.

For the variant A94U C113U, the self-cleavage is 0.12.

For the variant A92G U143A, the self-cleavage came to 0.14.

Take U96A A107U: the self-cleavage came to 0.08.

Regarding U96A A107G, the self-cleavage is 0.08.

Turning to G93U A121C, the self-cleavage stood at 0.03.

G97A U104A: the self-cleavage worked out at 0.06.

Consider A92C A138G, for which the self-cleavage amounted to 0.14.

Turning to A94U U109A, the self-cleavage worked out at 0.27.

Regarding G93A U112C, the self-cleavage was determined as 0.06.

In the case of A92U U119C, the self-cleavage was found to be 0.87.

As to A92C U112C, the self-cleavage is 0.18.

As for A92G A141G, the self-cleavage is 0.12.

Take U91C U100C: the self-cleavage turned out to be 0.48.

On to U91A A117U, for which the self-cleavage was found to be 0.6.

As to U91A U109C, the self-cleavage is 0.65.

As to C95U U119C, the self-cleavage is 0.22.

For U96C A138G, the self-cleavage came to 0.2.

As to G97A U115C, the self-cleavage was found to be 0.3.

For the variant U96C U134C, the self-cleavage worked out at 0.11.

With C95A U112C, the self-cleavage was determined as 0.05.

Consider G93A G122C, for which the self-cleavage is 0.01.

For the variant C95U A141G, the self-cleavage stood at 0.07.

As for U91A G144A, the self-cleavage was found to be 0.88.
